Data taken from paper PMC7408665.

The substances below were run against anti-E7 mAb (assay: ELISA). Conditions: read off a plot.

| Substance | response [OD450] |
| --- | --- |
| recombinant His-E7 protein of HPV16 (from UniProt P03129) E10Q | 1.1 |
| recombinant His-E7 protein of HPV16 (from UniProt P03129) L22A | 1 |
| recombinant His-E7 protein of HPV16 (from UniProt P03129) D36H | 1.3 |
| recombinant His-E7 protein of HPV16 (from UniProt P03129) C24P | 1.3 |
| recombinant His-E7 protein of HPV16 (from UniProt P03129) E18Q | 1 |
